For experiment [1], the target named is GAL4 activation domain-hsyt11AB fusion encoded by pGAD10-hsyt11AB (human synaptotagmin 11, domains C2A and C2B) (human) (UniProt Q9BT88). As to the kind of experiment: yeast two-hybrid liquid assay (β-galactosidase, n=3).
Experiment [2] concerns the target GFP-syt11 (GFP fusion of full-length human synaptotagmin XI) (human) [GFP: P42212]. Briefly: co-immunoprecipitation with anti-HA agarose, anti-GFP blot.

Sequence of GAL4 activation domain-hsyt11AB fusion encoded by pGAD10-hsyt11AB (human synaptotagmin 11, domains C2A and C2B) (human) (Q9BT88 157-431 G231V): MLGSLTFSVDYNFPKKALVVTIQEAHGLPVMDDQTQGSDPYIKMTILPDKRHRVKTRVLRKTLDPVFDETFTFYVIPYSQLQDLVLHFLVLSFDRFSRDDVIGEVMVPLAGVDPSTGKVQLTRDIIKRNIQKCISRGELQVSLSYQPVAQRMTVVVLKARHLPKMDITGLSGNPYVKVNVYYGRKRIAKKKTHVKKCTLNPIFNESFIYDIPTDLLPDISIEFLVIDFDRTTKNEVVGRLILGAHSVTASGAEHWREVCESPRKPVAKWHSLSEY

The substance “GAL4 binding domain-parkin(1-465) fusion encoded by pGBT9-parkin(1-465) (from UniProt P04386 1-147; O60260 1-465)” returned a fold β-galactosidase activity over pGBT9 vector control in experiment [1] of 20 fold.

Substance “HA-tagged missense mutated parkin C289G (from UniProt O60260 1-465) (enzyme)” displayed a fold less interaction compared with parkinC418R in experiment [2] of 2.5 fold less.

The values above are taken from US8138307.
